Data reported in patent US20110052564.

Legend:
[1] = target: crossbeta FVIII-1 (cFVIII-1), Helixate kept at 4 C for 20 hours
[2] = target: crossbeta FVIII-5 (cFVIII-5), Helixate kept at 95 C for 5 minutes
[3] = target: T1, crossbeta dOVA-1, ovalbumin at 5.2 mg/ml in HBS treated with HCl for 40 minutes at 37 C and neutralized, P01012
T1 chain: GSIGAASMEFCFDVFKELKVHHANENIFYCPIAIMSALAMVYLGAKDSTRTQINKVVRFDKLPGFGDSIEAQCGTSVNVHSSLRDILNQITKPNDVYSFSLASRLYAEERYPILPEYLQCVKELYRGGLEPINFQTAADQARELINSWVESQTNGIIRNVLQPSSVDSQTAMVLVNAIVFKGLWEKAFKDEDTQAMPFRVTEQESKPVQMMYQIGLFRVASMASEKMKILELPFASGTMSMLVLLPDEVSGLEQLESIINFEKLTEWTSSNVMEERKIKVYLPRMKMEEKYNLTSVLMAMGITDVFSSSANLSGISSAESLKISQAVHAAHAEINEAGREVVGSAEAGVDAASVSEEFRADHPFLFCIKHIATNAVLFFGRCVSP

[4] = target: T2, crossbeta dOVA-2, ovalbumin at 1.0 mg/mL in PBS heated five cycles from 30 to 85 C, P01012
T2 chain: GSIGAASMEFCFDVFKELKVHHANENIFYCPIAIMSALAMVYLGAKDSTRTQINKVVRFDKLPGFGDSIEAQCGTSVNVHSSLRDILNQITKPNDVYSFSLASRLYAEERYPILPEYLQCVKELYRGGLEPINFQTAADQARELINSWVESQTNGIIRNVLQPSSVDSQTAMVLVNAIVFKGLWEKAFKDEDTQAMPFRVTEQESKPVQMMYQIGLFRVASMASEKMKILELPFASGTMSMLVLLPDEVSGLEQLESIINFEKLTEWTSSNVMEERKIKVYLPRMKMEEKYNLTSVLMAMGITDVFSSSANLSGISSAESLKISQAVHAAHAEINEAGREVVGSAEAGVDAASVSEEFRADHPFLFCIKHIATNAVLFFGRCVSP

[5] = target: T3, crossbeta dOVA-3, ovalbumin at 1 mg/ml in PBS incubated about 16 h at 75 C, P01012
T3 chain: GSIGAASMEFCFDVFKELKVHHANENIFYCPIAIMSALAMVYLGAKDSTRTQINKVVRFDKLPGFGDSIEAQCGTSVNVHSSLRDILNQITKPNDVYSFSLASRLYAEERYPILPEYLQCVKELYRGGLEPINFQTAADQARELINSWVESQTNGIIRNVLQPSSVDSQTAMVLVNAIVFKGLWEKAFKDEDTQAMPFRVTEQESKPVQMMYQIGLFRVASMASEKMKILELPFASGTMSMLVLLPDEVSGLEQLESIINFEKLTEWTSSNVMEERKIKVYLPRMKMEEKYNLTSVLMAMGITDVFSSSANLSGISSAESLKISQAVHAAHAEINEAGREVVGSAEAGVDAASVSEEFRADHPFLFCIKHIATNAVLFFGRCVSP

[6] = target: crossbeta factor VIII form 12, Helixate kept at 37 C for 1 week, P00451
[7] = target: T4, crossbeta nOVA, ovalbumin dissolved in PBS at 1.0 mg/mL, P01012
T4 chain: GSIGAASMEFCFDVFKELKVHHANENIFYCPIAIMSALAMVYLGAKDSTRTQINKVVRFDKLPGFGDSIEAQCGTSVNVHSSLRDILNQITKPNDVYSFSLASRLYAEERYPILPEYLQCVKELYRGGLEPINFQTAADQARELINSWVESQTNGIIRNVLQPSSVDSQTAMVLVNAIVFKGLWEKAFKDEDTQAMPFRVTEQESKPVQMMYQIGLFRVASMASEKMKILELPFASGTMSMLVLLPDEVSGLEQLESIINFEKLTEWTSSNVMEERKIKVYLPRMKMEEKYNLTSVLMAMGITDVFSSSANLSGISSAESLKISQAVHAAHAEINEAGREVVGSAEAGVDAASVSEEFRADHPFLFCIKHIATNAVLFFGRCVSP

[8] = target: misfolded H5 of H5N1 strain A/Vietnam/1203/04, cH5-1
[9] = target: misfolded H5 of H5N1 strain A/Vietnam/1203/04, cH5-2
[10] = target: misfolded H5 of H5N1 strain A/Vietnam/1203/04, cH5-3
[11] = target: misfolded H5 of H5N1 strain A/Vietnam/1203/04, cH5-4
[12] = target: non-treated H5 of H5N1 strain A/Vietnam/1203/04 (nH5), Protein Sciences

crossbeta FVIII-1 (cFVIII-1), Helixate kept at 4 C for 20 hours, sequence (chain, as listed by the source): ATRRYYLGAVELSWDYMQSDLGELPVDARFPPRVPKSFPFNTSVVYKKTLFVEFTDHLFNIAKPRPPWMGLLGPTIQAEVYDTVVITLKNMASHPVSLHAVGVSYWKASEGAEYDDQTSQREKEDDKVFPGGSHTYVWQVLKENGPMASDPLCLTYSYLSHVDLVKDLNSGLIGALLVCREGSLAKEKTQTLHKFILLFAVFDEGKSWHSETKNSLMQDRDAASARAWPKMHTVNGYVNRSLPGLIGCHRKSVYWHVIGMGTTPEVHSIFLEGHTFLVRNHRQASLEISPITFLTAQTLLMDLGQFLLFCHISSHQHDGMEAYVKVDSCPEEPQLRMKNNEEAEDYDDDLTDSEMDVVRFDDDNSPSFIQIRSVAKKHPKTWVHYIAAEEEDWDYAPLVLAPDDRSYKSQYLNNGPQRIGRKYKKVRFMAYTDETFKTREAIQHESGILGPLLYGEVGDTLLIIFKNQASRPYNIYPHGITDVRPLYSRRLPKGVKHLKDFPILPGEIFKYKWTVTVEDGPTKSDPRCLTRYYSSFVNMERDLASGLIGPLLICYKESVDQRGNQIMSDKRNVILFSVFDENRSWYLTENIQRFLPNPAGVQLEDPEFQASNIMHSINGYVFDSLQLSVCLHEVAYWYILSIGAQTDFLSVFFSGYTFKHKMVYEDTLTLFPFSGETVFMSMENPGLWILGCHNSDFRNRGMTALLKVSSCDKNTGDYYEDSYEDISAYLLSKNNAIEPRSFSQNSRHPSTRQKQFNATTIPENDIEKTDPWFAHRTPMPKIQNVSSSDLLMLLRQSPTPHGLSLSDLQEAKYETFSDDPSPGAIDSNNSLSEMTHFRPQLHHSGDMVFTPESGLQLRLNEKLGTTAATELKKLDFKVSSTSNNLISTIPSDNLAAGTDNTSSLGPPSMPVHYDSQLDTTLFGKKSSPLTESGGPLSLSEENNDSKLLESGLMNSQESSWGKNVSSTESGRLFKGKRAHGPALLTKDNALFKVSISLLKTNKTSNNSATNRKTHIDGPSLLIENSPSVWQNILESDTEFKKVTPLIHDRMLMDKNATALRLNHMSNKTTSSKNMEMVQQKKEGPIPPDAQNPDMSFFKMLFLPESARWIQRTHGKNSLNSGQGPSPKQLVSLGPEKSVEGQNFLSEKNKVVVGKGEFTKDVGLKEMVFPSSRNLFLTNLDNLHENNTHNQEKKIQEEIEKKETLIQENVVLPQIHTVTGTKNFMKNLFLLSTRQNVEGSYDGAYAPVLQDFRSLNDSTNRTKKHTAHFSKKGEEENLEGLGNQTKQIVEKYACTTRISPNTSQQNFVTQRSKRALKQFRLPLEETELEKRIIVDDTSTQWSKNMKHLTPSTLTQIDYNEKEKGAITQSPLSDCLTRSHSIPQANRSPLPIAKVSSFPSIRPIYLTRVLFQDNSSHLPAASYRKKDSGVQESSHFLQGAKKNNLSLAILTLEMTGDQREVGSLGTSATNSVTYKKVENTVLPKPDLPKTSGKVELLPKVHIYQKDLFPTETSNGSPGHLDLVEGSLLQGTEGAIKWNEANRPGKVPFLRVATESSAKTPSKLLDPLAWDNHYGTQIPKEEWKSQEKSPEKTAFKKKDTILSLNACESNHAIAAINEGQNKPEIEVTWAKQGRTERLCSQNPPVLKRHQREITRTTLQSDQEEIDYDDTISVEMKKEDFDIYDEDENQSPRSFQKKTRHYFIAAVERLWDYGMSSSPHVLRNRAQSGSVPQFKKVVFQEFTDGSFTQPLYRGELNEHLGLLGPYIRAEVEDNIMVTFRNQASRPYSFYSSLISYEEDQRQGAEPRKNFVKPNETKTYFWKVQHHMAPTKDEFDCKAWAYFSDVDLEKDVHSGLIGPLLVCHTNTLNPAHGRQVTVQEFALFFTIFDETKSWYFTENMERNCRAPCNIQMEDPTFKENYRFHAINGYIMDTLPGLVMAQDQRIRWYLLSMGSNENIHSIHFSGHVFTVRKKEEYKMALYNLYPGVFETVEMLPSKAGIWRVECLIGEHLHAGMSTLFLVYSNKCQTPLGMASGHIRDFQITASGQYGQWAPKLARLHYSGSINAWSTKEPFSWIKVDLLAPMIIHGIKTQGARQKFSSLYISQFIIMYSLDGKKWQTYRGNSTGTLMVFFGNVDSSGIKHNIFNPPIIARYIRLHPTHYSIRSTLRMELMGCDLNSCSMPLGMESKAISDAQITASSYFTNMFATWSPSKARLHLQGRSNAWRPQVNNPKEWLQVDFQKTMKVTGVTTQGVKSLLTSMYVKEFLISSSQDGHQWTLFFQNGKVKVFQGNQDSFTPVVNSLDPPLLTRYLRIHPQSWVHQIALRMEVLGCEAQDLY
crossbeta FVIII-5 (cFVIII-5), Helixate kept at 95 C for 5 minutes, sequence (chain, as listed by the source): as above
crossbeta factor VIII form 12, Helixate kept at 37 C for 1 week, P00451, sequence (P00451 whole entry, looked up): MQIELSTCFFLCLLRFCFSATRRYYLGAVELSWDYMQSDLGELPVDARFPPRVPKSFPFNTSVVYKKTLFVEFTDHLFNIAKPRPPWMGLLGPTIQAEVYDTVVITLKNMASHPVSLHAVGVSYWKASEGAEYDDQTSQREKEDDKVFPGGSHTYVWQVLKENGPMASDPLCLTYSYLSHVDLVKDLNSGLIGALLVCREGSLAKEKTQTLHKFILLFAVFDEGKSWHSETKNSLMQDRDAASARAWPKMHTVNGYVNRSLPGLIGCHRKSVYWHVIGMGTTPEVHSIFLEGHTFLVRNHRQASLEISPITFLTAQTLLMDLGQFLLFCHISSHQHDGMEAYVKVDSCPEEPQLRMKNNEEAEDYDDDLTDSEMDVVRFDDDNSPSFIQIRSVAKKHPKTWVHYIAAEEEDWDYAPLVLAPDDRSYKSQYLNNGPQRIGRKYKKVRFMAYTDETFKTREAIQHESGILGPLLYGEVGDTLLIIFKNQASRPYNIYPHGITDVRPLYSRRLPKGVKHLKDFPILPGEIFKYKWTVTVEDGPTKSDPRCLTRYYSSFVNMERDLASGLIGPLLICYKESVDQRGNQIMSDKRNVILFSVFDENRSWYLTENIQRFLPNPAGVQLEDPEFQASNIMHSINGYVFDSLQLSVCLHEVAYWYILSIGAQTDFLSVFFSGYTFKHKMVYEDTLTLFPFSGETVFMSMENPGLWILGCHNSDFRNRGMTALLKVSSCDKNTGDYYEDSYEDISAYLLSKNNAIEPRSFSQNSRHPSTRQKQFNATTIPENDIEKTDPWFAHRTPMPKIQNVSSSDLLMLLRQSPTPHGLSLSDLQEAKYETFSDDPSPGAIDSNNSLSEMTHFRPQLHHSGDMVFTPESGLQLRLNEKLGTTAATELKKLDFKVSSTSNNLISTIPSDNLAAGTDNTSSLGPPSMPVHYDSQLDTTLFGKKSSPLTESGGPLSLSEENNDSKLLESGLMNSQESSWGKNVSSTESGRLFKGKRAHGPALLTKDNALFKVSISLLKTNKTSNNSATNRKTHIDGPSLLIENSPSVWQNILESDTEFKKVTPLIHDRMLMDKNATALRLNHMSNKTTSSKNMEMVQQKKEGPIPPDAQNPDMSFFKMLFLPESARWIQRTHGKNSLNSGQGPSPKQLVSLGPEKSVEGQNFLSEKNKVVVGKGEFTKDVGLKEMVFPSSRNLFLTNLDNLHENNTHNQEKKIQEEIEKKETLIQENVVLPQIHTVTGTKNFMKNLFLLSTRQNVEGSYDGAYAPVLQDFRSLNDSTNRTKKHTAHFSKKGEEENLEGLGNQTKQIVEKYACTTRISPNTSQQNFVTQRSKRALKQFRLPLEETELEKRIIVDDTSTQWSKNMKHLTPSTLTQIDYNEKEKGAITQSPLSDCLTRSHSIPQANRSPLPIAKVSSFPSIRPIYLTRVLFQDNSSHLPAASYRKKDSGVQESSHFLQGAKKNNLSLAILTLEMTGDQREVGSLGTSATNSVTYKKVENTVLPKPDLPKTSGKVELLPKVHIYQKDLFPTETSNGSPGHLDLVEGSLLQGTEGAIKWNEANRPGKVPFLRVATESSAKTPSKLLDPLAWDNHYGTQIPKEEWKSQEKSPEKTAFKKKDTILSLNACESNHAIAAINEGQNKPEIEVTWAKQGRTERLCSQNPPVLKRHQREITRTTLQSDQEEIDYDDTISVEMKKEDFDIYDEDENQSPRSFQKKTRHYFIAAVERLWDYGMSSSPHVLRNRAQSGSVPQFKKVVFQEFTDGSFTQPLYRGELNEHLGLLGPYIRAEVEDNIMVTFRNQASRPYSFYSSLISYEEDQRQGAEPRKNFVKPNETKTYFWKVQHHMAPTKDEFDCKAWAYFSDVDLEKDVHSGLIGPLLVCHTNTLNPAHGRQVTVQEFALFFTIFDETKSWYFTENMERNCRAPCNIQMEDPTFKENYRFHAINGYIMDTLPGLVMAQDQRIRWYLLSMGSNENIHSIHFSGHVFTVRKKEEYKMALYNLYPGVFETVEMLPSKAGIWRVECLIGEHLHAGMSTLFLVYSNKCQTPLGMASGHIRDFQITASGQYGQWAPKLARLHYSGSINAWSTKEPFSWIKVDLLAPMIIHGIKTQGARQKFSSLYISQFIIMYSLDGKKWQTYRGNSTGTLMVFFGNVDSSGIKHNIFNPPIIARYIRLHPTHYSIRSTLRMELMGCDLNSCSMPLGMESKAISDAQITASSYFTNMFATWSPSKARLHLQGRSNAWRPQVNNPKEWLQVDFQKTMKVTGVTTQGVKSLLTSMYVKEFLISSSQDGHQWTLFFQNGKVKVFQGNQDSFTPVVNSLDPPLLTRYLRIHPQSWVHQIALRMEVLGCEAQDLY

B1: tissue type plasminogen activator (tPA; Actilyse, Boehringer-Ingelheim) (protein)
chain: SYQVICRDEKTQMIYQQHQSWLRPVLRSNRVEYCWCNSGRAQCHSVPVKSCSEPRCFNGGTCQQALYFSDFVCQCPEGFAGKCCEIDTRATCYEDQGISYRGTWSTAESGAECTNWNSSALAQKPYSGRRPDAIRLGLGNHNYCRNPDRDSKPWCYVFKAGKYSSEFCSTPACSEGNSDCYFGNGSAYRGTHSLTESGASCLPWNSMILIGKVYTAQNPSAQALGLGKHNYCRNPDGDAKPWCHVLKNRRLTWEYCDVPSCSTCGLRQYSQPQFRIKGGLFADIASHPWQAAIFAKHRRSPGERFLCGGILISSCWILSAAHCFQERFPPHHLTVILGRTYRVVPGEEEQKFEVEKYIVHKEFDDDTYDNDIALLQLKSDSSRCAQESSVVRTVCLPPADLQLPDWTECELSGYGKHEALSPFYSERLKEAHVRLYPSSRCTSQHLLNRTVTDNMLCAGDTRSGGPQANLHDACQGDSGGPLVCLNDGRMTLVGIISWGLGCGQKDVPGVYTKVTNYLDWIRDNMRP
For B1, the “tPA/Plg activation assay, relative crossbeta content compared to a misfolded ovalbumin standard” value [1] was “approximately 50, 75 and 125%”, the “tPA/Plg activation assay, relative crossbeta content compared to a misfolded ovalbumin standard” value [2] was “approximately 50, 75 and 125%” and the Activation at 10 ug/mL [3] was 97.4%. It also gave an Activation at 25 ug/mL [3] of 136%, an Activation at 10 ug/mL [4] of 107% and an Activation at 10 ug/mL (row is the reference dOVA-2 at 80, set at 100%) [4] of 100%. It also gave an Activation at 25 ug/mL [4] of 107%, an Activation at 25 ug/mL (row is the reference dOVA-2 at 80, set at 100%) [4] of 100% and an Activation at 10 ug/mL [5] of 60.9%. The Activation at 25 ug/mL [5] was 79%, the “tPA/Plg activation assay, relative crossbeta content compared to a misfolded ovalbumin standard” value [6] was “approximately 50, 75 and 125%” and the Activation at 10 ug/mL [7] was 48.8%. For the same protein, the Activation at 25 ug/mL [7] was 48.1%, the “tPA mediated plasminogen activation assay” value [8] was “cH5-1 (50% of standard)” and the “tPA mediated plasminogen activation assay” value [9] was “cH5-2 (150% of standard)”. For the same protein, the “tPA mediated plasminogen activation assay” value [10] was “cH5-3 (200% of standard)”, the “tPA mediated plasminogen activation assay” value [11] was “cH5-4 (37% of standard)” and the “tPA mediated plasminogen activation assay” value [12] was “nH5 (140% of standard)”.
